B1: APRT (protein, UniProt P07741 2-180, looked up)
Adenine …: ADSELQLVEQRIRSFPDFPTPGVVFRDISPVLKDPASFRAAIGLLARHLKATHGGRIDYIAGLDSRGFLFGPSLAQELGLGCVLIRKRGKLPGPTLWASYSLEYGKAELEIQKDALEPGQRVVVVDDLLATGGTMNAACELLGRLQAEVLECVSLVELTSLKGREKLAPVPFFSLLQYE
B2: TPP1 (protein, UniProt O14773 196-563, looked up)
Tripeptidyl-peptidase 1: LHLGVTPSVIRKRYNLTSQDVGSGTSNNSQACAQFLEQYFHDSDLAQFMRLFGGNFAHQASVARVVGQQGRGRAGIEASLDVQYLMSAGANISTWVYSSPGRHEGQEPFLQWLMLLSNESALPHVHTVSYGDDEDSLSSAYIQRVNTELMKAAARGLTLLFASGDSGAGCWSVSGRHQFRPTFPASSPYVTTVGGTSFQEPFLITNEIVDYISGGGFSNVFPRPSYQEEAVTKFLSSSPHLPPSSYFNASGRAYPDVAALSDGYWVVSNRVPIPWVSGTSASTPVFGGILSLINEHRILSGRPPLGFLNPRLYQQHGAGLFDVTRGCHESCLDEEVEGQGFCSGPGWDPVTGWGTPNFPALLKTLLNP
B3: LTV1 (protein, UniProt Q96GA3 1-475, looked up)
Protein LTV1 homolog: MPHRKKKPFIEKKKAVSFHLVHRSQRDPLAADESAPQRVLLPTQKIDNEERRAEQRKYGVFFDDDYDYLQHLKEPSGPSELIPSSTFSAHNRREEKEETLVIPSTGIKLPSSVFASEFEEDVGLLNKAAPVSGPRLDFDPDIVAALDDDFDFDDPDNLLEDDFILQANKATGEEEGMDIQKSENEDDSEWEDVDDEKGDSNDDYDSAGLLSDEDCMSVPGKTHRAIADHLFWSEETKSRFTEYSMTSSVMRRNEQLTLHDERFEKFYEQYDDDEIGALDNAELEGSIQVDSNRLQEVLNDYYKEKAENCVKLNTLEPLEDQDLPMNELDESEEEEMITVVLEEAKEKWDCESICSTYSNLYNHPQLIKYQPKPKQIRISSKTGIPLNVLPKKGLTAKQTERIQMINGSDLPKVSTQPRSKNESKEDKRARKQAIKEERKERRVEKKANKLAFKLEKRRQEKELLNLKKNVEGLKL
B4: CPNE3 (protein, UniProt O75131 1-537, looked up)
Copine-3: MAAQCVTKVALNVSCANLLDKDIGSKSDPLCVLFLNTSGQQWYEVERTERIKNCLNPQFSKTFIIDYYFEVVQKLKFGVYDIDNKTIELSDDDFLGECECTLGQIVSSKKLTRPLVMKTGRPAGKGSITISAEEIKDNRVVLFEMEARKLDNKDLFGKSDPYLEFHKQTSDGNWLMVHRTEVVKNNLNPVWRPFKISLNSLCYGDMDKTIKVECYDYDNDGSHDLIGTFQTTMTKLKEASRSSPVEFECINEKKRQKKKSYKNSGVISVKQCEITVECTFLDYIMGGCQLNFTVGVDFTGSNGDPRSPDSLHYISPNGVNEYLTALWSVGLVIQDYDADKMFPAFGFGAQIPPQWQVSHEFPMNFNPSNPYCNGIQGIVEAYRSCLPQIKLYGPTNFSPIINHVARFAAAATQQQTASQYFVLLIITDGVITDLDETRQAIVNASRLPMSIIIVGVGGADFSAMEFLDGDGGSLRSPLGEVAIRDIVQFVPFRQFQNAPKEALAQCVLAEIPQQVVGYFNTYKLLPPKNPATKQQKQ
B5: FIP1L1 (protein, UniProt Q6UN15 1-594, looked up)
Pre-mRNA 3'-end-processing …: MSAGEVERLVSELSGGTGGDEEEEWLYGGPWDVHVHSDLAKDLDENEVERPEEENASANPPSGIEDETAENGVPKPKVTETEDDSDSDSDDDEDDVHVTIGDIKTGAPQYGSYGTAPVNLNIKTGGRVYGTTGTKVKGVDLDAPGSINGVPLLEVDLDSFEDKPWRKPGADLSDYFNYGFNEDTWKAYCEKQKRIRMGLEVIPVTSTTNKITAEDCTMEVTPGAEIQDGRFNLFKVQQGRTGNSEKETALPSTKAEFTSPPSLFKTGLPPSRNSTSSQSQTSTASRKANSSVGKWQDRYGRAESPDLRRLPGAIDVIGQTITISRVEGRRRANENSNIQVLSERSATEVDNNFSKPPPFFPPGAPPTHLPPPPFLPPPPTVSTAPPLIPPPGFPPPPGAPPPSLIPTIESGHSSGYDSRSARAFPYGNVAFPHLPGSAPSWPSLVDTSKQWDYYARREKDRDRERDRDRERDRDRDRERERTRERERERDHSPTPSVFNSDEERYRYREYAERGYERHRASREKEERHRERRHREKEETRHKSSRSNSRRRHESEEGDSHRRHKHKKSKRSKEGKEAGSEPAPEQESTEATPAE
B6: SDCCAG1 (protein, UniProt O60524 1-1076, looked up)
Ribosome quality control …: MKSRFSTIDLRAVLAELNASLLGMRVNNVYDVDNKTYLIRLQKPDFKATLLLESGIRIHTTEFEWPKNMMPSSFAMKCRKHLKSRRLVSAKQLGVDRIVDFQFGSDEAAYHLIIELYDRGNIVLTDYEYVILNILRFRTDEADDVKFAVRERYPLDHARAAEPLLTLERLTEIVASAPKGELLKRVLNPLLPYGPALIEHCLLENGFSGNVKVDEKLETKDIEKVLVSLQKAEDYMKTTSNFSGKGYIIQKREIKPSLEADKPVEDILTYEEFHPFLFSQHSQCPYIEFESFDKAVDEFYSKIEGQKIDLKALQQEKQALKKLDNVRKDHENRLEALQQAQEIDKLKGELIEMNLQIVDRAIQVVRSALANQIDWTEIGLIVKEAQAQGDPVASAIKELKLQTNHVTMLLRNPYLLSEEEDDDVDGDVNVEKNETEPPKGKKKKQKNKQLQKPQKNKPLLVDVDLSLSAYANAKKYYDHKRYAAKKTQKTVEAAEKAFKSAEKKTKQTLKEVQTVTSIQKARKVYWFEKFLWFISSENYLIIGGRDQQQNEIIVKRYLTPGDIYVHADLHGATSCVIKNPTGEPIPPRTLTEAGTMALCYSAAWDARVITSAWWVYHHQVSKTAPTGEYLTTGSFMIRGKKNFLPPSYLMMGFSFLFKVDESCVWRHQGERKVRVQDEDMETLASCTSELISEEMEQLDGGDTSSDEDKEEHETPVEVELMTQVDQEDITLQSGRDELNEELIQEESSEDEGEYEEVRKDQDSVGEMKDEGEETLNYPDTTIDLSHLQPQRSIQKLASKEESSNSSDSKSQSRRHLSAKERREMKKKKLPSDSGDLEALEGKDKEKESTVHIETHQNTSKNVAAVQPMKRGQKSKMKKMKEKYKDQDEEDRELIMKLLGSAGSNKEEKGKKGKKGKTKDEPVKKQPQKPRGGQRVSDNIKKETPFLEVITHELQDFAVDDPHDDKEEQDLDQQGNEENLFDSLTGQPHPEDVLLFAIPICAPYTTMTNYKYKVKLTPGVQKKGKAAKTALNSFMHSKEATAREKDLFRSVKDTDLSRNIPGKVKVSAPNLLNVKRK
B7: FHOD1 (protein, UniProt Q9Y613 2-1164, looked up)
FH1/FH2 domain-containing …: AGGEDRGDGEPVSVVTVRVQYLEDTDPFACANFPEPRRAPTCSLDGALPLGAQIPAVHRLLGAPLKLEDCALQVSPSGYYLDTELSLEEQREMLEGFYEEISKGRKPTLILRTQLSVRVNAILEKLYSSSGPELRRSLFSLKQIFQEDKDLVPEFVHSEGLSCLIRVGAAADHNYQSYILRALGQLMLFVDGMLGVVAHSDTIQWLYTLCASLSRLVVKTALKLLLVFVEYSENNAPLFIRAVNSVASTTGAPPWANLVSILEEKNGADPELLVYTVTLINKTLAALPDQDSFYDVTDALEQQGMEALVQRHLGTAGTDVDLRTQLVLYENALKLEDGDIEEAPGAGGRRERRKPSSEEGKRSRRSLEGGGCPARAPEPGPTGPASPVGPTSSTGPALLTGPASSPVGPPSGLQASVNLFPTISVAPSADTSSERSIYKARFLENVAAAETEKQVALAQGRAETLAGAMPNEAGGHPDARQLWDSPETAPAARTPQSPAPCVLLRAQRSLAPEPKEPLIPASPKAEPIWELPTRAPRLSIGDLDFSDLGEDEDQDMLNVESVEAGKDIPAPSPPLPLLSGVPPPPPLPPPPPIKGPFPPPPPLPLAAPLPHSVPDSSALPTKRKTVKLFWRELKLAGGHGVSASRFGPCATLWASLDPVSVDTARLEHLFESRAKEVLPSKKAGEGRRTMTTVLDPKRSNAINIGLTTLPPVHVIKAALLNFDEFAVSKDGIEKLLTMMPTEEERQKIEEAQLANPDIPLGPAENFLMTLASIGGLAARLQLWAFKLDYDSMEREIAEPLFDLKVGMEQLVQNATFRCILATLLAVGNFLNGSQSSGFELSYLEKVSEVKDTVRRQSLLHHLCSLVLQTRPESSDLYSEIPALTRCAKVDFEQLTENLGQLERRSRAAEESLRSLAKHELAPALRARLTHFLDQCARRVAMLRIVHRRVCNRFHAFLLYLGYTPQAAREVRIMQFCHTLREFALEYRTCRERVLQQQQKQATYRERNKTRGRMITETEKFSGVAGEAPSNPSVPVAVSSGPGRGDADSHASMKSLLTSRPEDTTHNRRSRGMVQSSSPIMPTVGPSTASPEEPPGSSLPSDTSDEIMDLLVQSVTKSSPRALAARERKRSRGNRKSLRRTLKSGLGDDLVQALGLSKGPGLEV

tested on: Hsp90 complexes in K562 cell extract; test: Nano-LC-MS/MS of PU-beads pull-downs; assay type: binding; conditions: protein identified in PU-beads pull-down of K562 cell extract, Prep 1; QSTAR-Elite QTof MS
How it was run: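 Proteins were identified by data-dependent nano LC-MS/MS (QTof, ESI) and Mascot searching (p<0.05), then reported as spectral counts and coverage via Scaffold. Inputs were PU-bead versus control-bead pull-downs from lysate pre-cleared with control beads overnight at 4 °C, eluted by boiling in 2% SDS.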

Row | Molecule | Number of Assigned Spectra, K562 Prep 1
1 | B1 | 0
2 | B2 | 4
3 | B3 | 5
4 | B4 | 4
5 | B5 | 6
6 | B6 | 2
7 | B7 | 5

same assay, conditions: protein identified in PU-beads pull-down of K562 cell extract, Prep 2; QSTAR-Elite QTof MS

Row | Molecule | Number of Assigned Spectra, K562 Prep 2
8 | B1 | 0
9 | B2 | 1
10 | B3 | 6
11 | B4 | 5
12 | B5 | 3
13 | B6 | 2
14 | B7 | 2

tested on: Hsp90 complexes in Mia-PaCa-2 cell extract; test: Nano-LC-MS/MS of PU-beads pull-downs; assay type: binding, human; conditions: protein identified in PU-beads pull-down of Mia-PaCa-2 cell extract; QSTAR-Elite QTof MS
How it was run: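 They came from PU-bead pull-downs of pre-cleared lysates (control beads, overnight, 4 °C), eluted by boiling in 2% SDS, gel-separated and run by data-dependent nano-ESI QTof MS/MS.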

Row | Molecule | Number of Assigned Spectra, Mia-Paca 2
15 | B1 | 6
16 | B2 | 1
17 | B3 | 0
18 | B4 | 0
19 | B5 | 0
20 | B6 | 3
21 | B7 | 0

Source: patent publication US20220074941A1, “HSP90 COMBINATION THERAPY” (Sloan-Kettering Institute for Cancer Research, priority 2011, published 2022)
